Data set [1] deals with GLP-1 receptor (Homo sapiens, UniProt P43220). The experiment in a line: Human GLP-1 receptor activation assay (CRE-luciferase). Format: cell-based. The arrangement: host or cells: CHO-K1. The note with it: for Emax: CHO-K1, 6 h, read-out: GLP-1 receptor Maximum activation (% vs GLP-1); for EC50: CHO-K1 cells transiently transfected, luciferase, 6 hours, 0.1% BSA. On the procedure: (§1) Then, the resulting increased luciferase activity was evaluated as a measurement of the effect on each receptor activation.
(§2) For positive control, endogenous ligand GLP-1 or glucagon was used for respective evaluation. The above-mentioned acylated oxyntomodulin peptide analogs of Comparative Example 8-12 were synthesized and used as comparative examples.
(§3) After 3 hours of transfection, medium was exchanged to Alpha Minimal Essential Medium (α-MEM) comprising 10% fetal bovine serum (FBS). Next day, the medium was exchanged to α-MEM comprising the acylated oxyntomodulin peptide analog of the present invention and 0.1% bovine serum albumin (BSA). After 6 hours, dual luciferase assay reagent (Promega) was added in the same amount as the medium in which the cells were submerged, and firefly luciferase and Renilla luciferase activities were successively measured. Firefly luciferase activity values were corrected against Renilla luciferase activity to yield transfection efficiency.

The target in data set [2] is glucagon receptor (Homo sapiens, UniProt P47871). Put plainly: Human glucagon receptor activation assay (CRE-luciferase). Also noted: host or cells: CHO-K1. In kind it is cell-based. Particulars: CHO-K1 cells transiently transfected; for Emax: 6 h, relative to glucagon, read-out: GCG receptor Maximum activation (% vs GCG); for EC50: 6 hours, 0.1% BSA, read-out: GCG receptor EC50. On the procedure: as §1, §2, §3

Data set [3] can be described thus: in vivo. The note with it: cynomolgus monkey, sc.
Text: Cynomolgus monkeys were used to evaluate the pharmacokinetics in monkeys of the acylated oxyntomodulin peptide analogs according to the present invention.
Data set [4] concerns the target Human glucagon receptor (human, UniProt P47871). The experiment in a line: cell-based or functional assay.
Data set [5] deals with Human GLP-1 receptor (human, UniProt P43220). The experiment in a line: cell-based or functional assay.

*1 amine or outer side, *2 acyl side, *3 side chain or, on linkers, in order; H or OH if unused. Side-chain parts run from the residue outwards. [ ]: non-standard residue; d: D form. The star is where a group is joined. C18 diacid = O=C(O)CCCCCCCCCCCCCCCCC(=O)*; γGlu = O=C(O)[C@H](CCC(=O)[*:2])N[*:1]; C14 diacid = O=C(O)CCCCCCCCCCCCC(=O)*; Stearoyl = CCCCCCCCCCCCCCCCCC(=O)*; AEEA = NCCOCCOCC(=O)O; Aib = CC(C)(N)C(=O)O Where only a bound is given, the exact number is not on record here.

Chain of glucagon receptor (P47871 26-477): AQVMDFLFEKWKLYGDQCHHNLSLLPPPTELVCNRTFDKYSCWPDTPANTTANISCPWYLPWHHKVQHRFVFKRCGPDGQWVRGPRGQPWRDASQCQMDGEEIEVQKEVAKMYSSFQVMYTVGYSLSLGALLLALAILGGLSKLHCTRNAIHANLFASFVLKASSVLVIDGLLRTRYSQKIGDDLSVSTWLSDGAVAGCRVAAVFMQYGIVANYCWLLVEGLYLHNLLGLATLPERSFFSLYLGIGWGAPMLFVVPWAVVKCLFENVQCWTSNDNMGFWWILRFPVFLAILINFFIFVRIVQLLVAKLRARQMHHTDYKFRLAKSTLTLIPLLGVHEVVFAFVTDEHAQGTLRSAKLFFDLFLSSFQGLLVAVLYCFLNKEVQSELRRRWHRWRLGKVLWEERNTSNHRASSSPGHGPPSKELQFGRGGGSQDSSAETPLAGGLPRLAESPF
Chain of GLP-1 receptor (P43220 24-463): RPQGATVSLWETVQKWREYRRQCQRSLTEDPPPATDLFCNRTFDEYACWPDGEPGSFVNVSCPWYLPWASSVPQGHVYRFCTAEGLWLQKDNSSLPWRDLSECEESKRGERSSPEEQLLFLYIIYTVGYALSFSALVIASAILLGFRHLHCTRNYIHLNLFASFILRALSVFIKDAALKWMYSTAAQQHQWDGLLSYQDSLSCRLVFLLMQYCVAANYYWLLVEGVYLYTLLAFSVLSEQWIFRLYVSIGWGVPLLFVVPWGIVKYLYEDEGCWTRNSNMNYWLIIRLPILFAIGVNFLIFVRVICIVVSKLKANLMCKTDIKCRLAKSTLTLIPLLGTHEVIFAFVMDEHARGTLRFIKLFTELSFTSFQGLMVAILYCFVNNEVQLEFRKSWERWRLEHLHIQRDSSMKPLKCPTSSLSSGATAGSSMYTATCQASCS

Regarding `CCCCCCCCCCCCCCCCCC(=O)N[C@@H](CCC(=O)NCCOCCOCC(=O)NCCOCCOCC(=O)NCCCC[C@H](NC(=O)[C@H](CC(=O)O)NC(=O)[C@H](CO)NC(=O)[C@@H](NC(=O)[C@H](Cc1ccccc1)NC(=O)[C@@H](NC(=O)CNC(=O)[C@H](CCC(N)=O)NC(=O)C(C)(C)NC(=O)[C@@H](N)Cc1c[nH]cn1)[C@@H](C)O)[C@@H](C)O)C(=O)N[C@@H](CO)C(=O)N[C@@H](CCCCN)C(=O)N[C@@H](Cc1ccc(O)cc1)C(=O)N[C@@H](CC(C)C)C(=O)N[C@@H](CC(=O)O)C(=O)NC(C)(C)C(=O)N[C@@H](CCCNC(=N)N)C(=O)N[C@@H](CCCNC(=N)N)C(=O)N[C@@H](C)C(=O)N[C@@H](CCC(N)=O)C(=O)N[C@@H](CC(=O)O)C(=O)N[C@@H](Cc1ccccc1)C(=O)N[C@H](C(=O)N[C@@H](CCC(N)=O)C(=O)N[C@@H](Cc1c[nH]c2ccccc12)C(=O)N[C@@H](CC(C)C)C(=O)N[C@@H](CCSC)C(=O)N[C@@H](CC(N)=O)C(=O)N[C@H](C(=O)N[C@@H](CCCCN)C(=O)N[C@@H](CCC(=O)O)C(=O)N[C@@H](Cc1ccc(O)cc1)C(=O)N[C@@H](CCC(=O)O)C(=O)N[C@@H](CCCCNC(=O)CCCCCCCCCCCCCCC(N)=O)C(=O)N[C@@H](CCC(=O)O)C(=O)N[C@@H](Cc1ccc(O)cc1)C(=O)N[C@@H](CCC(=O)O)C(=O)O)[C@@H](C)O)C(C)C)C(=O)O` [Compound 11], the results for the Emax in data set [1] and in data set [2] were 92.8% and 98.5%, respectively. Moreover, the EC50 in data set [1] and in data set [2] was under 0.1 nM throughout. The half-life was 6 to 12 h in data set [3] (Monkey PK (S.C. half-life)) and under 12 h in data set [3] (monkey PK half-life).

Turning to `CCCCCCCCCCCCCCCCCC(=O)N[C@@H](CCC(=O)NCCOCCOCC(=O)NCCOCCOCC(=O)NCCCC[C@H](NC(=O)[C@H](CC(=O)O)NC(=O)[C@H](CO)NC(=O)[C@@H](NC(=O)[C@H](Cc1ccccc1)NC(=O)[C@@H](NC(=O)CNC(=O)[C@H](CCC(N)=O)NC(=O)C(C)(C)NC(=O)[C@@H](N)Cc1c[nH]cn1)[C@@H](C)O)[C@@H](C)O)C(=O)N[C@@H](CO)C(=O)N[C@@H](CCCCN)C(=O)N[C@@H](Cc1ccc(O)cc1)C(=O)N[C@@H](CC(C)C)C(=O)N[C@@H](CC(=O)O)C(=O)NC(C)(C)C(=O)N[C@@H](CCCNC(=N)N)C(=O)N[C@@H](CCCNC(=N)N)C(=O)N[C@@H](C)C(=O)N[C@@H](CCC(N)=O)C(=O)N[C@@H](CC(=O)O)C(=O)N[C@@H](Cc1ccccc1)C(=O)N[C@H](C(=O)N[C@@H](CCC(N)=O)C(=O)N[C@@H](Cc1c[nH]c2ccccc12)C(=O)N[C@@H](CC(C)C)C(=O)N[C@@H](CCSC)C(=O)N[C@@H](CC(N)=O)C(=O)N[C@H](C(=O)N[C@@H](CCCCN)C(=O)N[C@@H](CCC(=O)O)C(=O)N[C@@H](Cc1ccc(O)cc1)C(=O)N[C@@H](CCC(=O)O)C(=O)N[C@@H](CCCCNC(=O)COCCOCCNC(=O)COCCOCCNC(=O)COCCOCCNC(=O)CCCCCCCCCCCCCCC)C(=O)N[C@@H](CCC(=O)O)C(=O)N[C@@H](Cc1ccc(O)cc1)C(=O)N[C@@H](CCC(=O)O)C(=O)O)[C@@H](C)O)C(C)C)C(=O)O` [Compound 12], the results for the Emax in data set [1] and in data set [2] were 102% and 89.6%, respectively. For the same molecule, the EC50 in data set [1] and in data set [2] was under 0.1 nM in each case. In addition, the half-life was 6 to 12 h in data set [3] (Monkey PK (S.C. half-life)) and under 12 h in data set [3] (monkey PK half-life).

Turning to H-H[Aib]QGTFTSDK([AEEA-AEEA-γGlu-Stearoyl])SKYLD[Aib]RRAQDFVQWLMNTKEYEK([Lys-AEEA-AEEA-AEEA-γGlu-C18 diacid])EYE-OH [Compound 6], in data set [4], the “Maximum activation (% vs GCG)” value is 89.1%. Besides, the “Maximum activation (% vs GLP-1)” value in data set [5] came to 83.8%.

B1: Compound 5 (peptide)
peptide: H-H[Aib]QGTFTSDK([AEEA-AEEA-γGlu-Stearoyl])SKYLD[Aib]RRAQDFVQWLMNTKEYEK([AEEA-AEEA-AEEA-γGlu-C18 diacid])EYE-OH
SMILES: CCCCCCCCCCCCCCCCCC(=O)N[C@@H](CCC(=O)NCCOCCOCC(=O)NCCOCCOCC(=O)NCCCC[C@H](NC(=O)[C@H](CC(=O)O)NC(=O)[C@H](CO)NC(=O)[C@@H](NC(=O)[C@H](Cc1ccccc1)NC(=O)[C@@H](NC(=O)CNC(=O)[C@H](CCC(N)=O)NC(=O)C(C)(C)NC(=O)[C@@H](N)Cc1c[nH]cn1)[C@@H](C)O)[C@@H](C)O)C(=O)N[C@@H](CO)C(=O)N[C@@H](CCCCN)C(=O)N[C@@H](Cc1ccc(O)cc1)C(=O)N[C@@H](CC(C)C)C(=O)N[C@@H](CC(=O)O)C(=O)NC(C)(C)C(=O)N[C@@H](CCCNC(=N)N)C(=O)N[C@@H](CCCNC(=N)N)C(=O)N[C@@H](C)C(=O)N[C@@H](CCC(N)=O)C(=O)N[C@@H](CC(=O)O)C(=O)N[C@@H](Cc1ccccc1)C(=O)N[C@H](C(=O)N[C@@H](CCC(N)=O)C(=O)N[C@@H](Cc1c[nH]c2ccccc12)C(=O)N[C@@H](CC(C)C)C(=O)N[C@@H](CCSC)C(=O)N[C@@H](CC(N)=O)C(=O)N[C@H](C(=O)N[C@@H](CCCCN)C(=O)N[C@@H](CCC(=O)O)C(=O)N[C@@H](Cc1ccc(O)cc1)C(=O)N[C@@H](CCC(=O)O)C(=O)N[C@@H](CCCCNC(=O)COCCOCCNC(=O)COCCOCCNC(=O)COCCOCCNC(=O)CC[C@H](NC(=O)CCCCCCCCCCCCCCCCC(=O)O)C(=O)O)C(=O)N[C@@H](CCC(=O)O)C(=O)N[C@@H](Cc1ccc(O)cc1)C(=O)N[C@@H](CCC(=O)O)C(=O)O)[C@@H](C)O)C(C)C)C(=O)O
Turning to B1, in data set [4], the “Maximum activation (% vs GCG)” value was 99.4%. Further, the “Maximum activation (% vs GLP-1)” value in data set [5] came to 93.6%.

H-H[Aib]QGTFTSDK([AEEA-AEEA-γGlu-Stearoyl])SKYLD[Aib]RRAQDFVQWLMNTKEYEK([Lys-C18 diacid])EYE-OH [Compound 4]: in data set [4], the EC50 was at least 1 nM and the “Maximum activation (% vs GCG)” value came to 95.4%. The “Maximum activation (% vs GLP-1)” value in data set [5] came to 87.9%.

B2: Compound 3 (peptide)
peptide: H-H[Aib]QGTFTSDK([AEEA-AEEA-γGlu-Stearoyl])SKYLD[Aib]RRAQDFVQWLMNTKEYEK(C18 diacid)EYE-OH
SMILES: CCCCCCCCCCCCCCCCCC(=O)N[C@@H](CCC(=O)NCCOCCOCC(=O)NCCOCCOCC(=O)NCCCC[C@H](NC(=O)[C@H](CC(=O)O)NC(=O)[C@H](CO)NC(=O)[C@@H](NC(=O)[C@H](Cc1ccccc1)NC(=O)[C@@H](NC(=O)CNC(=O)[C@H](CCC(N)=O)NC(=O)C(C)(C)NC(=O)[C@@H](N)Cc1c[nH]cn1)[C@@H](C)O)[C@@H](C)O)C(=O)N[C@@H](CO)C(=O)N[C@@H](CCCCN)C(=O)N[C@@H](Cc1ccc(O)cc1)C(=O)N[C@@H](CC(C)C)C(=O)N[C@@H](CC(=O)O)C(=O)NC(C)(C)C(=O)N[C@@H](CCCNC(=N)N)C(=O)N[C@@H](CCCNC(=N)N)C(=O)N[C@@H](C)C(=O)N[C@@H](CCC(N)=O)C(=O)N[C@@H](CC(=O)O)C(=O)N[C@@H](Cc1ccccc1)C(=O)N[C@H](C(=O)N[C@@H](CCC(N)=O)C(=O)N[C@@H](Cc1c[nH]c2ccccc12)C(=O)N[C@@H](CC(C)C)C(=O)N[C@@H](CCSC)C(=O)N[C@@H](CC(N)=O)C(=O)N[C@H](C(=O)N[C@@H](CCCCN)C(=O)N[C@@H](CCC(=O)O)C(=O)N[C@@H](Cc1ccc(O)cc1)C(=O)N[C@@H](CCC(=O)O)C(=O)N[C@@H](CCCCNC(=O)CCCCCCCCCCCCCCCCC(=O)O)C(=O)N[C@@H](CCC(=O)O)C(=O)N[C@@H](Cc1ccc(O)cc1)C(=O)N[C@@H](CCC(=O)O)C(=O)O)[C@@H](C)O)C(C)C)C(=O)O
B2: the “Maximum activation (% vs GCG)” value in data set [4] came to 98.3%. Also, the “Maximum activation (% vs GLP-1)” value in data set [5] was determined as 98.3%.

B3: Compound 1 (peptide)
peptide: H-H[Aib]QGTFTSDK([AEEA-AEEA-γGlu-Stearoyl])SKYLD[Aib]RRAQDFVQWLMNTKEYEK(C14 diacid)EYE-OH
SMILES: CCCCCCCCCCCCCCCCCC(=O)N[C@@H](CCC(=O)NCCOCCOCC(=O)NCCOCCOCC(=O)NCCCC[C@H](NC(=O)[C@H](CC(=O)O)NC(=O)[C@H](CO)NC(=O)[C@@H](NC(=O)[C@H](Cc1ccccc1)NC(=O)[C@@H](NC(=O)CNC(=O)[C@H](CCC(N)=O)NC(=O)C(C)(C)NC(=O)[C@@H](N)Cc1c[nH]cn1)[C@@H](C)O)[C@@H](C)O)C(=O)N[C@@H](CO)C(=O)N[C@@H](CCCCN)C(=O)N[C@@H](Cc1ccc(O)cc1)C(=O)N[C@@H](CC(C)C)C(=O)N[C@@H](CC(=O)O)C(=O)NC(C)(C)C(=O)N[C@@H](CCCNC(=N)N)C(=O)N[C@@H](CCCNC(=N)N)C(=O)N[C@@H](C)C(=O)N[C@@H](CCC(N)=O)C(=O)N[C@@H](CC(=O)O)C(=O)N[C@@H](Cc1ccccc1)C(=O)N[C@H](C(=O)N[C@@H](CCC(N)=O)C(=O)N[C@@H](Cc1c[nH]c2ccccc12)C(=O)N[C@@H](CC(C)C)C(=O)N[C@@H](CCSC)C(=O)N[C@@H](CC(N)=O)C(=O)N[C@H](C(=O)N[C@@H](CCCCN)C(=O)N[C@@H](CCC(=O)O)C(=O)N[C@@H](Cc1ccc(O)cc1)C(=O)N[C@@H](CCC(=O)O)C(=O)N[C@@H](CCCCNC(=O)CCCCCCCCCCCCC(=O)O)C(=O)N[C@@H](CCC(=O)O)C(=O)N[C@@H](Cc1ccc(O)cc1)C(=O)N[C@@H](CCC(=O)O)C(=O)O)[C@@H](C)O)C(C)C)C(=O)O
As for B3, in data set [4], the EC50 is under 0.1 nM and the “Maximum activation (% vs GCG)” value stood at 107%. In data set [5], the half-maximal effective concentration (EC50) was under 0.1 nM and the “Maximum activation (% vs GLP-1)” value amounted to 102%.

The values above are taken from patent publication US20230220035A1 (DONG-A ST CO., LTD., published 2023).
